Paper PMC6922461

What was measured:
[1] = molecular target: monovalent Strep-Tactin-SpyCatcherΔ; experiment: SPR
[2] = molecular target: trivalent Strep-Tactin-SpyCatcher; experiment: SPR
trivalent Strep-Tactin-SpyCatcher, sequence (P22629 other isoform, or with tags, fused parts or gaps, chain 1 of 2): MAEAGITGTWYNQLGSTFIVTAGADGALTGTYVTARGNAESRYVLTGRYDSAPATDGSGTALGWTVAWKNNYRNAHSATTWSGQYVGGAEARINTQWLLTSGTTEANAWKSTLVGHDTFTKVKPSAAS
trivalent Strep-Tactin-SpyCatcher, sequence (P22629 other isoform, or with tags, fused parts or gaps, chain 2 of 2): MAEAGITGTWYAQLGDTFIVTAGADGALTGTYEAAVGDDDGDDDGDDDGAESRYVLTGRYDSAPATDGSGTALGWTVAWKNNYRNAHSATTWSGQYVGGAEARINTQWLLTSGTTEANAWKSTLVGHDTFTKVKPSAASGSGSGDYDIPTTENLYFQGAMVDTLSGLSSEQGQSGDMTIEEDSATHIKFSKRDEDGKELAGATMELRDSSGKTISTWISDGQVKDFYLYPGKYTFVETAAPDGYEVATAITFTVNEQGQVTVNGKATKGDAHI

monovalent Strep-Tactin-SpyCatcherΔ, sequence (P22629 other isoform, or with tags, fused parts or gaps mutant, chain 1 of 2): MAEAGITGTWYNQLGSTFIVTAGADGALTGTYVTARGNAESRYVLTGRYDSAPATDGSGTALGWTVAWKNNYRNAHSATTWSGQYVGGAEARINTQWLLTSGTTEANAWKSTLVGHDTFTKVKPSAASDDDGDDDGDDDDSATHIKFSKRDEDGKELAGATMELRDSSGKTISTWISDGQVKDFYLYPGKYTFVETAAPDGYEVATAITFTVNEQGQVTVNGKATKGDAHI
monovalent Strep-Tactin-SpyCatcherΔ, sequence (P22629 other isoform, or with tags, fused parts or gaps mutant, chain 2 of 2): as the sequence (P22629 other isoform, or with tags, fused parts or gaps, chain 1 of 2) above, with N12A, S16D, V33E, T34A, R36V counted along it

Substance	Kd [1] [µM]	Kd [2] [µM]
Strep-tag II–mTFP	43	–
Twin-Strep-tag–mTFP fusion protein	–	6.8
